Measured values: patent US12208130B2, “Treatment of women affected with polycystic ovary syndrome” (INSTITUT NATIONAL DE LA SANTE ET DE LA RECHERCHE MEDICALE …, priority 2017, dated 2025)
Where a SMILES comes first, the peptide text is derived from it. [ ]: non-standard residue; d: D form. dPhe(4-Cl) = N[C@H](Cc1ccc(Cl)cc1)C(=O)O; d2Nal = N[C@H](Cc1ccc2ccccc2c1)C(=O)O; dCit = NC(=O)NCCC[C@@H](N)C(=O)O; d3Pal = N[C@H](Cc1cccnc1)C(=O)O

B1: proAMH: AMH proprotein (Origene Technologies, Cat # TP308397), injected prenatally 0.12 mg/Kg/d (protein, UniProt P03971 25-560, looked up)
pro-form: LRAEEPAVGTSGLIFREDLDWPPGSPQEPLCLVALGGDSNGSSSPLRVVGALSAYEQAFLGAVQRARWGPRDLATFGVCNTGDRQAALPSLRRLGAWLRDPGGQRLVVLHLEEVTWEPTPSLRFQEPPPGGAGPPELALLVLYPGPGPEVTVTRAGLPGAQSLCPSRDTRYLVLAVDRPAGAWRGSGLALTLQPRGEDSRLSTARLQALLFGDDHRCFTRMTPALLLLPRSEPAPLPAHGQLDTVPFPPPRPSAELEESPPSADPFLETLTRLVRALRVPPARASAPRLALDPDALAGFPQGLVNLSDPAALERLLDGEEPLLLLLRPTAATTGDPAPLHDPTSAPWATALARRVAAELQAAAAELRSLPGLPPATAPLLARLLALCPGGPGGLGDPLRALLLLKALQGLRVEWRGRDPRGPGRAQRSAGATAADGPCALRELSVDLRAERSVLIPETYQANNCQGVCGWPQSDRNPRYGNHVVLLLKMQVRGAALARPPCCVPTAYAGKLLISLSEERISAHHVPNMVATECGCR
modifications: pro-form
notes: AMH proprotein (Origene Technologies, Cat # TP308397), injected prenatally 0.12 mg/Kg/d

Tested on: C57BL6/J (B6) dams and their female offspring
Test: Prenatal treatment of pregnant dams: phenotype, estrous cycle, ovarian histology and fertility of female offspring
Type: in vivo, mouse
Description: FIGS. 2A-2E-3. Prenatal AMH treatment disrupts estrous cyclicity, ovarian morphology and fertility in adult offspring. (FIG. 2A) Schematic of experimental design whereby pregnant dams were subjected to different treatments by intraperitoneal (i.p.) injections during the late gestational period (embryonic days (E) 16.5-E18.5). Pregnant dams were treated with i.p. injections of four different treatments, which are designated as the following: Control, PBS, 0.01M, pH 7.4 (n=14); Prenatal anti-Müillerian hormone-treated (PAMH), PBS containing human recombinant AMH (n=19); Prenatal AMH+Cetrorelix (PAMH+GnRH antag), PBS containing both human recombinant AMH and cetrorelix acetate (n=10); Cetrorelix-treated (GnRH antag), PBS containing cetrorelix acetate (n=4). (FIG. 2B) Quantitative analysis of ovarian cyclicity in adult (P60-P90) offspring mice (control, n=14; PAMH, n=19; PAMH+GnRH antag, n=10; GnRH antag, n=4). Vaginal cytology was assessed for 16 days. […] Bars from left to right in each group: Control, PAMH, PAMH+GnRH antag, GnRH antag. (FIGS. 2C-1, 2C-2, 2C-3) Representation of estrous cyclicity in one female mouse of each of the four treatments during 16 consecutive days (4-cycles). (FIGS. 2D-1, 2D-2, 2D-3) Quantitative analysis of corpora lutea, late antral follicles and atretic follicles in the ovaries of Control (n=7, age: P90) and PAMH mice (n=8, age: P90). Data are represented as mean±s.e.m (two-tailed Student's t-test; corpora lutea, t(13)=4.879, **P<0.001; late antral follicles, t(13)=4.637, **P<0.001; atretic follicles, t(13)=0.226, P=0.82). Data were combined from two independent experiments. In FIGS. 2D-1, 2D-2 and 2D-3: left bar: Control; right bar: PAMH.). (FIGS. 2E-1, 2E-2, 2E-3) Fertility tests of the adult offspring mice (P90). Bars from left to right in each FIGS. 2E-1, 2E-2 and 2E-3: Control, PAMH, PAMH+GnRH antag, GnRH antag Matings were performed for 90 days. Control females were paired with control males (n=7), PAMH females were paired with PAMH males (n=7), PAMH+GnRH antag females were paired with PAMH+GnRH antag males (n=6), and GnRH antag females were paired with GnRH antag males (n=4). […] Data are represented as mean±s.e.m. One-way ANOVA and Tukey's multiple comparison post hoc test: time to first litter, F(3,20)=14.73, ***P<0.0001; fertility index, F(3,20)=7.069, *P<0.05, **P<0.005; number of pups/litter, F(3,20)=30.71, ***P<0.0001.
FIGS. 8A-8D. Prenatal AMH treatment disrupts puberty onset and estrous cyclicity cyclicity but not body mass of the offspring. (FIGS. 8A, 8B, 8C, 8D) Parameters of pubertal onset and estrous cyclicity in female control (n=14), PAMH (n=17-19), PAMH+GnRH antag (n=10), and GnRH antag (n=4) animals. (FIG. 8A) Age of vaginal opening (VO) and (FIG. 8B) Age of first estrus were compared using a one-way ANOVA and Tukey's multiple comparison post hoc analyses, respectively: F (3, 43)=48.37, *** P<0.0001; F (3, 41)=112.6, *** P<0.0001. Bars from left to right in each FIGS. 8A, 8B: Control, PAMH, PAMH+GnRH antag, GnRH antag (FIG. 8C) Percentage (%) of completed estrous cycles over 16 days (4 cycles) was analyzed using a non-parametric Kruskal-Wallis test followed by a Dunn's multiple comparison post-hoc analysis: Kruskal-Wallis statistic=35.55, *P<0.05, **P<0.005, ***P<0.0001. Bars from left to right in each FIG. 8C: Control, PAMH, PAMH+GnRH antag, GnRH antag (FIG. 8D) Body mass (gr) was measured in female offspring at each post-natal age (P) until P60 and compared using a one-way ANOVA and Tukey's multiple comparison post hoc analyses for each age and treatment: P30, F (3, 43)=1.338, P=0.2747; P35, F (3, 43)=0.4268, P=0.7348; P40, F (3, 43)=0.4171, P=0.7416; P50, F (3, 27)=2.158, P=0.1162; P60, F (3, 27)=5.45, P=0.0046; * P<0.05, **, P<0.005. Asterisks represent significant differences (mean±s.e.m): *P<0.05, **P<0.005, ***, P<0.0001. Bars from left to right in FIG. 8D: Control, PAMH, PAMH+GnRH antag, GnRH antag. […]

[1] = dams i.p. AMH 0.12 mg/Kg/d + cetrorelix acetate 0.5 mg/Kg E16.5-E18.5, female offspring
[2] = dams i.p. 0.12 mg/Kg/d E16.5-E18.5, female offspring vs control

| Molecule | estrous cyclicity and fertility (GnRH antagonist alone, dams i.p. 0.5 mg/Kg/d E16.5-E18.5, offspring) | longer ano-genital distance phenotype of PAMH offspring [1] | oligo-anovulation and subfertility (ovulatory and fertility defects) of PAMH offspring [1] | oligo-anovulation and subfertility (ovulatory and fertility defects) of PAMH offspring (dams i.p. AMH 0.12 mg/Kg/d + cetrorelix acetate 0.5 mg/Kg E16.5-E18.5, female offspring, listed as GnRH antagonist) | estrous cyclicity (dams i.p. 0.12 mg/Kg/d E16.5-E18.5, adult female offspring vs control) | ano-genital distance (dams i.p. 0.12 mg/Kg/d E16.5-E18.5, female offspring P30-P60 vs control) | body weight of offspring [2] | puberty onset (first estrus) [2] | vaginal opening [2] |
| --- | --- | --- | --- | --- | --- | --- | --- | --- | --- |
| CC(=O)N[C@H](Cc1ccc2ccccc2c1)C(=O)N[C@H](Cc1ccc(Cl)cc1)C(=O)N[C@H](Cc1cccnc1)C(=O)N[C@@H](CO)C(=O)N[C@@H](Cc1ccc(O)cc1)C(=O)N[C@H](CCCNC(N)=O)C(=O)N[C@@H](CC(C)C)C(=O)N[C@@H](CCCNC(=N)N)C(=O)N1CCC[C@H]1C(=O)N[C@H](C)C(N)=O [Cetrorelix acetate, Ac-D-2Nal-D-Phe(4-Cl)-D-3Pal-Ser-Tyr-D-Cit-Leu-Arg-Pro-D-Ala-NH2] (Ac-[d2Nal][dPhe(4-Cl)][d3Pal]SY[dCit]LRP[dA]-NH2) | no effect | completely rescued | totally prevented | prevented the appearance of the ovulatory and fertility defects | – | – | – | – | – |
| B1 | – | – | – | – | disrupted estrous cyclicity | significantly longer ano-genital distance | no difference in body weight | delayed puberty onset | delayed vaginal opening |
